Assay results reported in US20110059051A1.

Target: Gal4-DNA binding domain fusion with PGC-1α (yeast) (UniProt P04386)
Experiment: cell-based or functional assay

Substance: PRDM16 expressed from pcDNA-Prdm16 plasmid in cos7 cells (from UniProt A2A935 1-1275)
- transactivation of the UAS-Firefly Luciferase reporter by gal4-pgc1α: 200 fold
